Measurements taken from patent publication US7790363B2, “Diagnostic test for vitamin B12” (Abbott Laboratories Inc., priority 2005, dated 2010).
Each block holds one molecule with its values, some of them ahead of it.

Assays:
[1] = Solubility of the protein expressed in E. coli; type: physicochemical; conditions: expression in E. coli from the named vector
Description: Using the Porcine IF cDNA14-1248 (SEQ ID NO: 5) as the template and the Forward Primer pIFMP-ForI (SEQ ID NO: 14) and Reverse Primer pIFMP-RevXhoI (SEQ ID NO: 15), the cDNA encoding the Porcine IF cDNA54-1254-Mature Peptide was amplified by PCR. The PCR profile was as follows: one initial denaturation step at a temperature of 95° C. for 5 minutes; then 33 cycles of the following conditions: a temperature of 95° C. for 30 seconds, then a temperature of 57° C. for 30 seconds, then a temperature of 72° C. for 1 minute; followed by a final extension at a temperature of 72° C. for 5 minutes. This PCR fragment was subcloned into pGEMEX-1 expression vector (purchased from Promega Corporation, Madison, Wis.).
To produce a soluble version of this protein, cDNA encoding the Porcine IF cDNA54-1254-Mature Peptide was amplified by PCR using IF cDNA14-1248 (SEQ ID NO: 5) as the template and the Forward primer pIF-PIC-MP-For EcoR1 (SEQ ID NO: 16) and the Reverse pIF-MP-pMAL-SaI1 Rev primer (SEQ ID NO: 17) and the following PCR conditions: one initial denaturation step at a temperature of 95° C. for 5 minutes; then 35 cycles of the following conditions: a temperature of 95° C. for 30 seconds, then a temperature of 56° C. for 30 seconds, then a temperature of 72° C. for 1 minute; followed by a final extension at a temperature of 72° C. for 5 minutes. […]

[2] = "ARCHITECT" Intrinsic Factor Binding Capacity Assay (one-step competitive assay); conditions: read from vitamin B12 calibration curve, converted to binding capacity using an equation
Description: The vitamin B12-binding capacity of the recombinant porcine Intrinsic Factor was measured using in “ARCHITECT” Intrinsic Factor Binding Capacity Assay. The assay is a one-step competitive assay where intrinsic factor from the test sample competes with intrinsic factor coated onto microparticles for the vitamin B12-acridinium tracer. Thus, signal in the assay is inversely proportional to the concentration of intrinsic factor in the test sample. The results are read from a vitamin B12 calibration curve, and the vitamin B12 concentration results are converted to binding capacity using an equation. The Binding Capacity Value for the recombinant porcine intrinsic factor was determined to be 904 ng/ml.

[3] = system: anti-intrinsic factor antibody; assay: Western blotting with anti-intrinsic factor antibody; type: binding; conditions: E. coli lysate, SDS-PAGE, blotted onto nitrocellulose, probed with anti-intrinsic factor antibody
Source text: (§1) FIG. 3 illustrates the binding of recombinant porcine intrinsic factor to anti-intrinsic factor antibody by Western blotting. The E. coli cells were lysed and the proteins were resolved using SDS-PAGE and blotted onto a nitrocellulose membrane. The membrane was then probed with anti-intrinsic factor antibody. Lane 1 contains molecular weight markers (marked in kilodaltons). Lanes 2, 3, 4, and 5 represent cells from various clones expressing recombinant porcine intrinsic factor. Lane 6 contains the native porcine intrinsic factor (purified from hog (Sus scrofa) gut).
(§2) The E. Coli lysate containing the expressed recombinant porcine intrinsic factor was run on an SDS-PAGE (Polyacrylamide Gel Electrophoresis), and the gel was blotted onto nitrocellulose. This blot was probed with anti-intrinsic factor antibody and developed using an appropriate substrate. […] Referring now to FIG. 3, Lane 1 contains molecular weight markers (marked in kilodaltons). Lanes 2, 3, 4, and 5 represent cells from various clones expressing recombinant porcine intrinsic factor. Lane 6 contains the native porcine intrinsic factor (purified from hog (Sus scrofa) gut).

[4] = vitamin B12-Alkaline Phosphatase conjugate blot; type: binding; conditions: E. coli lysate, SDS-PAGE, blotted onto nitrocellulose, probed with vitamin B12-alkaline phosphatase conjugate
Source text: as §1, with “FIG. 2” for “FIG. 3”, “to vitamin B12.” for “to anti-intrinsic factor antibody by Western blotting.”, “was” for “was then”, “with vitamin B12 conjugate to alkaline phosphatase. […]” for “with anti-intrinsic factor antibody.”
as §2, with “E. coli” for “E. Coli”, “with vitamin B12-alkaline phosphatase conjugate” for “with anti-intrinsic factor antibody”, “FIG. 2,” for “FIG. 3,”

B1: Porcine IF cDNA54-1254-Mature Peptide: Porcine intrinsic factor mature peptide, 399 amino acids, SEQ ID NO: 9, expressed from pGEMEX-1 expression vector (protein)
chain: STQTRSSCSVPSAEQPLVNGIQVLMEQSVTSSAFPNPSILIAMNLAGAYNTEAQELLTYKLMATNTSDLTTGQLALTIMALTSSCRDPGNRIAILQGQMENWAPPSLDTHASTFYEPSLGILTLCQNNPEKTLPLAARFAKTLLANSSPFNMDTGAMATLALTCMYNKIPVGSEEGYRALFSQVLRNTVENISMRIQDNGIIGNIYSTGLAMQALSVTPEQPNKEWDCQKTMDTVLTEIKEGKFHNPMAIAQILPSLKGKTYLDVPHVSCSPGHEVPPTLPNHPSPVPTPAPNITVIYTINNQLRGVELLFNETISVSVKRGSVLLIVLEEAQRKNPKFKFETTMTSWGPVVSSINNIAENVNHRTYWQFLSGQTPLNEGVADYIPFNHEHITANFTQY
modifications: S. scrofa
solubility of the expressed protein [1]: insoluble and formed inclusion bodies

Binding Capacity Value (vitamin B12-binding capacity) [2]: 904 ng/mL
binding to vitamin B12 (band developed color) [4]: bound to vitamin B12
B2: recombinant porcine intrinsic factor: Recombinant porcine intrinsic factor produced in E. coli from the pMAL-IF or pET32a-IF vector, affinity purified (protein)
chain: YNLKAQKLLTYKLMATNTSDLTTGQLALTIMALTSSCRDPGNRIAILQGQMENWAPPSLDTHASTFYEPSLGILTLCQNNPEKTLPLAARFAKTLLANSSPFNMDTGAMATLALTCMYNKIPVGSEEGYRALFSQVLRNTVENISMRIQDNGIIGNIYSTGLAMQALSVTPEQPNKEWDCQKTMDTVLTEIKEGKFHNPMAIAQILPSLKGKTYLDVPHVSCSPGHEVPPTLPNHPSPVPTPAPNITVIYTINNQLRGVELLFNETISVSVKRGSVLLIVLEEAQRKNPKFKFETTMTSWGPVVSSINNIAENVNHRTYWQFLSGQTPLNEGVADYIPFNHEHITANFTQY
modifications: S. scrofa
binding to anti-intrinsic factor antibody (band developed color) [3]: recognized by the antibody
